The target of test [1] is T1, N-terminal Flag-tagged human Nectin-4 on transfected MDA-MB231 cells (human, UniProt Q96NY8 32-510).
T1 construct: whole, on cells; also called PVRL4; Flag-tagged Nectin-4; not shown: N-terminal Flag tag from vector p3XFLR4.C1
T1 sequence (looked up): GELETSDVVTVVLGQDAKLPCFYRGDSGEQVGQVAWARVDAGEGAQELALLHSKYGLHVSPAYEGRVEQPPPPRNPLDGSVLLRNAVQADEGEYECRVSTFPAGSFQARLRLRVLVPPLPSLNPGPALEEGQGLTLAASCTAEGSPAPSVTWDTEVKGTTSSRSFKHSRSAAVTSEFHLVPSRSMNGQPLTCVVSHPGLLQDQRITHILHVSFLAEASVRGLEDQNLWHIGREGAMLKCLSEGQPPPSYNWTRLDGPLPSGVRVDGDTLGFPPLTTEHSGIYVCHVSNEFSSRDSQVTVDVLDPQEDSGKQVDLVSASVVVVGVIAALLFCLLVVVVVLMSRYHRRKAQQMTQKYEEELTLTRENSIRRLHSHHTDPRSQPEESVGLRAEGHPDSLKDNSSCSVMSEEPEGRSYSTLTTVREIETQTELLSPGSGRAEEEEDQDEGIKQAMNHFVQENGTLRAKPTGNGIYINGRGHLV
The test is described as follows: flow cytometry on MDA-MB231 cells transfected with N-terminal Flag-tagged Nectin-4, dose range 0.3 ng/mL - 5 µg/mL (FIG. 1). (Flow cytometry measures light scatter and fluorescence of single cells or particles in a stream.)

A further test deals with T2, human Nectin-4 on cells (human, UniProt Q96NY8 32-510).
T2 construct: whole, on cells; also called CHO cells transfected with human Nectin-4 cDNA; Nectin-4 expressed by normal differentiated human keratinocytes (NHEK)
T2 sequence (looked up): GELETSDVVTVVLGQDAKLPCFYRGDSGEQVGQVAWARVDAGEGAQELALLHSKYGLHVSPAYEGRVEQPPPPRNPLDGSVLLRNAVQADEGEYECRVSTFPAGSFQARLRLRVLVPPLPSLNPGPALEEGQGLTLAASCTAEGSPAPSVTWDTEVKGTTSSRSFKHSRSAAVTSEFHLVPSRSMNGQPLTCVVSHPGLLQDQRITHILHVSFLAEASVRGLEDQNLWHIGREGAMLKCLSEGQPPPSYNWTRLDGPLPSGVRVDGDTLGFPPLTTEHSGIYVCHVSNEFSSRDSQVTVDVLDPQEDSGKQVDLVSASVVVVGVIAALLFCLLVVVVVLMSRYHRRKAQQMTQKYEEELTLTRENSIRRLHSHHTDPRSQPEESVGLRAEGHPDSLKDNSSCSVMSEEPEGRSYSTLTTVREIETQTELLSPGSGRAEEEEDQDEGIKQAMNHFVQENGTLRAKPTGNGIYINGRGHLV
The test is described as follows: flow cytometry on normal differentiated human keratinocytes (NHEK), dose range 8 pM - 33 nM (FIG. 15); Ch-5A12.2 is the reference of the comparison.

B1: Ch-5A12.2 (antibody, V domains shown)
VH: QIQLQQSGAELVKPGASVTLSCKTSGFTFNSMYISWLKQKPGQSLEWIAWIYAGTGGTRFNQKFTGKVQLTVDTSSSTAYMQFSSLTTDDSAIYYCAIRSGFVPMDYWGQGTSVTVSS
VL: SIVMTQTPKFLLVSAGDRVTITCKASQSVSNDVAWYQQKPGQSPKLLIYYASNRYTGVPDRFTGSGYGTDFTFTISTVQAEDLAVYFCQQDYSSPWTFGGGTKLEIK
notes: also called 5A12.2 mAb; Ch-5A12.2 mAb
With B1, the binding result (in test [1]; with human Nectin-4 on cells) was “binds” throughout.

The values above are taken from patent EP4285935A1 (Emergence Therapeutics AG, dated 2023).
